Source: KR20230175116A (dated 2023)

T1: DR3 on cells (DR3 stable cell line; DR3 on human PBMC T cells) (human, UniProt Q93038 25-417)
T1 construct: whole, on cells; Also used for the DR3 of hPBMC T cells in the NF-kB assays; also called 세포 표면에서 발현된 DR3; DR3 natural form
T1 sequence (looked up): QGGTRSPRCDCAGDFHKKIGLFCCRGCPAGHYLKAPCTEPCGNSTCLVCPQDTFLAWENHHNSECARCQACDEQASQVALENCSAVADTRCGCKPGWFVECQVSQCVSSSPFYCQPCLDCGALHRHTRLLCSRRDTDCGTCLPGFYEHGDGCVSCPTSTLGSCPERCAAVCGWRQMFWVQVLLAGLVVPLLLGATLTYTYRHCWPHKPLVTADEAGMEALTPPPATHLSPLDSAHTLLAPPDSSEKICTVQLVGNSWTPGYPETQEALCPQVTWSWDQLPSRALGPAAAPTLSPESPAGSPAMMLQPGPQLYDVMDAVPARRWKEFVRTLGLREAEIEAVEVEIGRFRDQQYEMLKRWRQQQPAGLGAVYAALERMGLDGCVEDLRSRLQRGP

B1: 항-DR3 4-4 항체 (4-4 mAb) (antibody, V domains shown)
VH: EVQLVESGGGLVKPGGSLRLSCAASGFTFSDYYMSWIRQAPGKGLEWVSYISSSSSYTNYADSVKGRFTISRDNAKNSLYLQMNSLRAEDTAVYYCASNVDTAMVGAFDIWGQGTLVTVS
VL: DIEMTQSPSSVSASVGDTVTITCRASQHISNWLAWYQQKPGQAPKFLIYTASNLQSGVPSRFSGSGYGTDFTLTISGLQPEDFATYYCQQADSFPLTFGGGTKVDIK
notes: also called clone 4-4; clone 4-4 IgG1
B2: 6-2 mAb (antibody, V domains shown)
VH: QVQLVQSGGGLVQPGGSLRLSCAASGFTFSSYSMNWVRQAPGKGLEWVSYISSSSSTIYYADSVKGRFTISRDNAKNSLYLQMNSLRAEDTAVYYCARWDGYCSGGSCYSGMDYWGQGTLVTVS
VL: not shown
notes: Human monoclonal IgG; also called clone 6-2; clone 6-2 IgG1
B3: 6-15 mAb (antibody, V domains shown)
VH: B2 VH
VL: DIEMTQSPSSLSASVGDKVTITCQASQDISNYLNWYQQKPGKAPKLLIYDASNLETGVPSRFSGSGSGTDSTFTISSLQPEDIATYYCQQYDNLPLTFGGGTKVEIK
notes: Human monoclonal IgG (detected with anti-human IgG Fc); also called clone 6-15

Molecular target: T1, DR3 on cells (DR3 stable cell line; DR3 …)
Assay: FACS, DR3 stable cell line, 2 ug/ml mAb, anti-human IgG PE

Binder | binding result
B1 | binds
B2 | binds
B3 | binds
